Experimental data as given in a protein production outcome set (Wang et al. 2014).

Assay: label from the status in PepcDB records

Sequence | protein production
MFNKKKTIASLIVLSSLASQIALTPISALADTHDTNNIALLQNTNENVPYKYTSTLTFPTLTNQTQEDYKLEIKLALPSGMNYTDLQVSVGGEDITNQVGTTSFDNSTNTVTFKFDKVTSWDSLSKAKVKFDWKTSYSGEGGEAKIDSLVATATATSEDKAGNKSTSTGSLKPKDISAPVVKAEETEITYSPGSDVTEEQFLTDIHASVTDNYDSTISLTSNFTSAVNLAVSGDYSVNVQATDKAGNVSNTLNVTVHVSTPAPVAGANITVNHLDSNGNKIAESDTLTGVVNSNYQSESKKITGYTLETTPTNATGTFTDTPQTVDYIYKKDTVTPTPITVNPVEPVKPVNPVVNKPVTVKPANDNTNPSTSNSVEKTTYSSLPTTGDTDQSKSSTIFGALLLLISAPLLLFKKK | failed
MAYNSNSNNNNNNIVVVFDFDKTIIDVDSDNWVIDELGFTDLFNQLLPTMPWNTLMDRMMKELHDQGKTIEEIKQVLRTIPIHPRVVPAIKSAHDLGCELRIVSDANMFFIETIVEHLGISELFSEINSNPGYVDERGTLKISPYHDFTKSPHSCSCGTCPPNMCKGLIIERIQQSLAKEGKKKMIYLGDGAGDYCPSLKLNTEDYVMPRKNFPVWDLISQNPMLIKAAIREWTDGQSMEMILIGTIEEIRLEEEKEKMLTSAENNCKMQTISIGINNVHHEPILPRALRVSQSS | failed
MSWLFSTLVFFLTLLTAGIALYLITARRYQSSNSVANSYDQWTEDGILEFYWGEHIHLGHYGSPPQRKDFLVAKSDFVHEMVRWGGLDKLPPGTTLLDVGCGIGGSSRILARDYGFAVTGITISPQQVQRAQELTPQELNAQFLVDDAMALSFPDNSFDVVWSIEAGPHMPDKAIFAKELMRVLKPGGIMVLADWNQRDDRQKPLNFWEKPVMQQLLDQWSHPAFSSIEGFSELLAATGLVEGEVITADWTKQTLPSWLDSIWQGIVRPEGLVRFGLSGFIKSLREVPTLLLMRLAFGTGLCRFGMFRALRADTVRSSAEQTSAIKVAQK | failed
MVAATSQNTFDSPRSPLYNFTMDIRPLSDVAGVILVGGRSRRMGRDKALIPLGGKPLVERVIDAFRPLFERILLVGDRGERFASYGLPVFPDIHPGSALGGLYTGLVRAGTPHVFVSACDVPWPDPRVIARLCSLREGFDVVVPRTVGGSEPLFAVYGTGCLPAMERMLREGNYRIYDFYPEVRTRYVEQAELADLVTPARTFVNVNTPEEFETIRNREEGMAIKAVSFVAKSGTGKTTLLEKVIAELKGRGYRIGVIKHDAHRFDIDHPGKDSHRLAAAGADTMLIASPEKLALVKKYDESPPLDELLATYFGDVDIVLTEGFKKSSLPKIEVHRMERSATLLCRGEEHDPTLVAVASDAALALDVPVFDLNNPAQVADFVERTFLAAGAALEHHHHHH | not failed
MASRDAQEPSLHAADPSIVRPCEQHGGVLAGSVSSHPAAAECASHTPTLETGAPCAAGSAPSAPMTDQGARSPRAADSMPASSLERDERARRIACRLPSSAIRLPAFGEAVSRPNAGSSVDATATKASLPSAGDDGLGNSREEQGTTCSEPDLHGVPENDQVEVCVGGRGILRPRSYQRQAPQRCGLPGMAPETAARPDHTARNELEEALARQRARLAEPDASGDIHGRHAG | failed
MIYSKVENFINENKQNAIFTEGASHENIGRIEENLQCDLPNSYKWFLEKYGAGGLFGVLVLGYNFDHASVVNRTNEYKEHYGLTDGLVVIEDVDYFAYCLDTNKMKDGECPVVEWDRVIGYQDTVADSFIEFFYNKIQEAKDDWDEDEDWDD | not failed
MGHHHHHHSHPQSAAKPGLHFIDQHRAALIARVTNVEWLLDALYGKVLTDEQYQAVRAEPTNPSKMRKLFSFTPAWNWTCKDLLLQALRESQSYLVEDLERS | failed
MKKFGLGVYLLLLGILGGSLIILGAIVAPIVFKASSVLPELHLTPFESGKLMAQIFVRFNYVLGAIGFVVLLYEIISFIYYKRSLVYLILGVAIGALCLLFVFYYTPYILNAQKAGEAALQSAEFARSHAQSEWLFKELFVLVCALFFWRLLGKNVL | failed
MSDQPMNEVQDNAAPANPWLELRRLTPARIALGRTGTSLPTCAQLDFQAAHAQARDAVHLAFDHAAISAQLAEKGRETILLHSAAADRDSYLQRPDLGRRLNDESAQTLRDYAAAHPGGLDLAVVVADGLSALAVHRHAVPFLTRLEEQASAEGWTLSPVLMVEQGRVAVADEIGELLGAKMVVILIGERPGLSSPDSLGLYFTYAPKVGLNDAHRNCISNVRLEGLSYAMAAHRLLYLMREACKRQISGVSLKDEAQLNTLESDDSAENSDRKIGNFLLDGPAVPH | not failed
MKPSLRIYRYPPPPSQRTPCALTIGNFDGVHLGHQAILARVRQEARARGLVPAVMTFEPHPREYFATLNRRPELAPTRISGLRDKLQALAAAGIEQVAVERFDARLAEMSANAFIEDLLVAGLQTRWLLVGEDFRYGHKRSGDIDLLREAGLAHGFEVCTLADITDRQGHRISSSEVRTALAVGDLDRAAQLLGQPFHISGHVIHGRKLGRELGFPTMNLRVAPRCATRSGIYVVRVLGLQDRPLPAVASLGVRPTVEDRGRVLLEAHLLDESLDAYGKLVRVEFLHKLRDEEKFADLPSLTAAIAQDAQNARAYFAVHGL | failed
MELTQTHLLPVPLQTAWDALNDPAVLQRCIPGCESVTAATEHAYDIAMTAAVGPVKARFKGRMELADIVPPRSYTLHFDGQGGAAGFGKGTAQVQLAPEGPTVTRLSYTAHAQVGGKLAQIGSRLIDGAARKLADEFFQRFASEFGPAGGTGPLDAAPADQAIPDLASGELAAHGAPRTPLISPAVQPRNPWPWIIVALVAIVAAYLFLHHGA | failed
MNFPIDEKLIREKQNELHIKDLGMASIRDLVALVTNLEKATGTKFCRMEMGVPGLPAPQIGIETEIQKLREGVASIYPNLDGLPELKQEASRFAKLFVNIDIPARACVPTVGSMQGCFVSFLVANRTHKNREYGTLFIDPGFNLNKLQCRILGQKFESFDLFEYRGEKLREKLESYLQTGQFCSIIYSNPNNPTWQCMTDEELRIIGELATKHDVIVIEDLAYFGMDFRKDYSHPGEPLYQPSVANYTDNYILALSSSKAFSYAGQRIGVLMISGKLYEREYPDLEESFGRLRFGEALSSSALYALSSGATHSAQWGMAAMLKACNDGEYNFRDSVIEYGRKARIMKKMFLDNGFNIVYDKDGNEPLADGFYFTVGYKGMDSSKLIEKFVRYGMCAITLKTTGSKRNEAMRICTSLLPESQFPDLEKRLQMLNAEG | not failed
MLYIDKATILKFDLEMLKKHRRAIQFIAVLLFIVGLLCISFPFVSGDILSTVVGALLICSGIALIVGLFSNRSHNFWPVLSGFLVAVAYLLIGYFFIRAPELGIFAIAAFIAGLFCVAGVIRLMSWYRQRSMKGSWLQLVIGVLDIVIAWIFLGATPMVSVTLVSTLVGIELIFSAASLFSFASLFVKQQ | failed
MPPPIHPSSSAAPGPVPNHLIWAIVSTVLGFCLCCPALISGIVAIVFSSKVNGLLNQGDIDGARRASNTAKTWCIVTSVLAAIGLLINIGMVATGGMQGYMDYMQQLQHMQ | failed
MKNTIDVENDSIIAFTGGRIFTMDSEQKHAETVVINGGCIAAVGDRSILKSFPNAKIRDLKGRVLLPAFIDSHNHLSSFGCFFPTWANLIGLTEKGSVLEEIQLQTRKKPGKGWIVGFGWFDAKIGGVDLTKNDLDEISSDRPVLLIQATFHQSVVNSRALELVGITRSTPDPRCGIILRESDGMPTGVLVECAQVPVFRLAMEADTGTLANLIEAHAKELLKFGITAVHDPGVTPAAEAAYQKLHSEERLPVSVLMMPHGETILDNQLGYRLHGPVTGVGDERLRVGPVKLFADGATEETVAFSLKIGGQTINSGNYRDDFEEMLFAATEKGFRVCVHSFGNVTTDAVLTAFENAVTRAPAGFEMRPRLEHVTLISTSQIKRLAAMGGCACIQPQFLSRAQNTKQVVLDDGKWYAYGDLVKGGVTVASGSDNPGGFMDARDPIEGSVMGSTMSDGAGNAIFPDQVLPFEQWLWMYTAGGAYAGGQEKERGMLKKGMVADLVVLEGNLDPKNPPVVAETWVAGKQVYDHRV | failed
MGFEVRRRLSVADTVTLFNAVVGFVAGAIAFTDPHLAARLILLAVIADAIDGIVARNGDSSAVGPLLDSVTDVVSFGATPSLFLYVLLTDAYGGIESAHPAVFVGLALLASAYVVCSIVRTAFYSTYFDSPDERPGMPNTLGSIIIATAYLSGITNPLVLSVGALGLSLAMIAPFDYPKPGPKHAVPMGVVQAVAVVAPAALFRAGPRAMLAIALLFFALGPWFYPGE | failed
PGAAPGLFALESAIDEMALASGMDPLAFRKLNLSDKDQSVGLPWSSNHLPEAIDKAAERFGWQARKAAVGSMREGDEIIGYGMGACNWEAHQVPTDARVVLRSDGTALAQCGLQDIGTGTYTIVAQTVSELTGIPIERVEVELGSSSFPPGPVSGGSWVTASVMPAIAGATREALQKLRQYAISKDAVFAGQDPESIKVENGQLVMGEQRASFVDVLKGQRLSRAEGNFQSGMPEAGKYSFRSFGVHFVEVRWDPGISSLRVSRVVSAIDVGKVINPLAARNQVEGAIVMGIGMALFEAGEYDPRSGMPVNNNYAEYVVPVHADQPDIDVMLLDYPDYNLGEFGARGIGEIGVTGLAAAVANAVYHATGKRVRSLPITKEKLMAGL | failed
MSCWKTINLVKDYGGMRIVLTAVSLMILFFIPEYLAMQLIHPQTVQRGDHALLFAGLLVAAIIAHKILHILPMISKKKLEKKIYWLKMRTWREIPKNMMLVSLLCPFLVITPVLFYAGAAMPSFAHYFCIISSIHFGYCLPDFLFAWKLIKAPKNCFVDQEADDFDILIQK | failed
MMVKDGLRYWPLGMAFLLGVGLQPVRAAEMFLPPTGLAQEELIALTEVDSLAQARLPQSEGSAIDLLPLPPQPTAAVDPPREAPASLPTTIEVKGDSPAPPVEPSPPTTDNSPGVPTTPQLAAEQAVQEARLALLREGDRYWQLGDLTTARTYYQKAKADLNVPPPHVIPPAVLEISQLPPAAQVYWREVQSGSQLYTAQAVPLQLLVEQFPEFIPAQVRFGEFLAQQGSLKEACAHLEKAASLYPDQPDIQRGLITLYDRQQQWLEAALAAQRFALLNPDHPATPEFEQLAAERMQRFRRRLQGQLREGMVVGALTGLVGVALTGNPLLSLDSIQMMTLMMQGESALGRSAARNISRQVKLLEDAAVQTYVNEVGQRLAKVAGRNEFAYEFFVIKDNDLNAFALPGGKIFVNSGAILKASTEAELAGLLAHEIAHTVLSHGFRLMTQGTATANLTRLLPAGGYVTGIVVTSYSREMEREADILGTQILARAGYAADGLLNLMHTLKKEYRNQEPPLPWFSTHPPTNERIRYIRGLMRDRGYTPFAFEGLERHQRIQAHLRTLVDPPNAPKSKRETAKTPQ | failed
MTLSKQLKTYITERFKLNYQDTWSCETVDAVAEDVLPEKYIKNSPLEHKILNTFTYYNDELHEISIYPFLCYLDKELIAIGYLDNFDLDFIFLNDTHQIIIDERYLLQKGGELEHHHHHH | failed
GEKLLNAASTRGRLCVGIDPHESLLTSWGLPVNVDGLAEFSRACVEAFADTVALVKPQVAFYERFGSAGFAILEETIQTLRERGCLVVSDAKRGDIGSTMAGYASAWLDPASPLSSDAVTVSPYLGFHSLDPVFELAEQHGRGVFVLAATSNPEARELQDQQNADGVSISQQIVDQAAALNAPYMAQGKAGNIGVVIGATLSKPPRLSTLGGAILMPGVGAQGGTASDVDEIAGDMAHLAFPNVSRSILATGPDIAEMKNSVAKN | failed
SGILFMSKVGLRGDRRSEGDEVLDPLRQALDSSMQSHNLYQHPQHLAFHVSAPVASTVQQASGLLGPLPHLSSFALQPAHSLLPPLGSHGAGFQENGAKAES | not failed
MGSSHHHHHHSSGLVPRGSTETSQQLQLRVQGKEKHQTLEVSLSRDSPLKTLMSHYEEAMGLSGRKLSFFFDGTKLSGRELPADLGMESGDLIEVWG | not failed
TFEEDDNMERAAVTGIAFDKNQARINVRGVPDKPGVAYQILGAVADANIEVDMIIQNVGSEGTTDFSFTVPRGDYKQTLEILSERQDSIGAASIDGDDTVCKVSAVGLGMRSHVGVAAKIFRTLAEEGINIQMISTSEIKVSVLIDEKYMELATRVLHKAFNLG | not failed
